Experimental data reported in IntAct's records for PubMed 10898792.

B1: DNA polymerase alpha catalytic subunit A (Saccharomyces cerevisiae), P13382 (parent)
chain: MSSKSEKLEKLRKLQAARNGTSIDDYEGDESDGDRIYDEIDEKEYRARKRQELLHDDFVVDDDGVGYVDRGVEEDWREVDNSSSDEDTGNLASKDSKRKKNIKREKDHQITDMLRTQHSKSTLLAHAKKSQKKSIPIDNFDDILGEFESGEVEKPNILLPSKLRENLNSSPTSEFKSSIKRVNGNDESSHDAGISKKVKIDPDSSTDKYLEIESSPLKLQSRKLRYANDVQDLLDDVENSPVVATKRQNVLQDTLLANPPSAQSLADEEDDEDSDEDIILKRRTMRSVTTTRRVNIDSRSNPSTSPFVTAPGTPIGIKGLTPSKSLQSNTDVATLAVNVKKEDVVDPETDTFQMFWLDYCEVNNTLILFGKVKLKDDNCVSAMVQINGLCRELFFLPREGKTPTDIHEEIIPLLMDKYGLDNIRAKPQKMKYSFELPDIPSESDYLKVLLPYQTPKSSRDTIPSDLSSDTFYHVFGGNSNIFESFVIQNRIMGPCWLDIKGADFNSIRNASHCAVEVSVDKPQNITPTTTKTMPNLRCLSLSIQTLMNPKENKQEIVSITLSAYRNISLDSPIPENIKPDDLCTLVRPPQSTSFPLGLAALAKQKLPGRVRLFNNEKAMLSCFCAMLKVEDPDVIIGHRLQNVYLDVLAHRMHDLNIPTFSSIGRRLRRTWPEKFGRGNSNMNHFFISDICSGRLICDIANEMGQSLTPKCQSWDLSEMYQVTCEKEHKPLDIDYQNPQYQNDVNSMTMALQENITNCMISAEVSYRIQLLTLTKQLTNLAGNAWAQTLGGTRAGRNEYILLHEFSRNGFIVPDKEGNRSRAQKQRQNEENADAPVNSKKAKYQGGLVFEPEKGLHKNYVLVMDFNSLYPSIIQEFNICFTTVDRNKEDIDELPSVPPSEVDQGVLPRLLANLVDRRREVKKVMKTETDPHKRVQCDIRQQALKLTANSMYGCLGYVNSRFYAKPLAMLVTNKGREILMNTRQLAESMNLLVVYGDTDSVMIDTGCDNYADAIKIGLGFKRLVNERYRLLEIDIDNVFKKLLLHAKKKYAALTVNLDKNGNGTTVLEVKGLDMKRREFCPLSRDVSIHVLNTILSDKDPEEALQEVYDYLEDIRIKVETNNIRIDKYKINMKLSKDPKAYPGGKNMPAVQVALRMRKAGRVVKAGSVITFVITKQDEIDNAADTPALSVAERAHALNEVMIKSNNLIPDPQYYLEKQIFAPVERLLERIDSFNVVRLSEALGLDSKKYFRREGGNNNGEDINNLQPLETTITDVERFKDTVTLELSCPSCDKRFPFGGIVSSNYYRVSYNGLQCKHCEQLFTPLQLTSQIEHSIRAHISLYYAGWLQCDDSTCGIVTRQVSVFGKRCLNDGCTGVMRYKYSDKQLYNQLLYFDSLFDCEKNKKQELKPIYLPDDLDYPKEQLTESSIKALTEQNRELMETGRSVVQKYLNDCGRRYVDMTSIFDFMLN
partner: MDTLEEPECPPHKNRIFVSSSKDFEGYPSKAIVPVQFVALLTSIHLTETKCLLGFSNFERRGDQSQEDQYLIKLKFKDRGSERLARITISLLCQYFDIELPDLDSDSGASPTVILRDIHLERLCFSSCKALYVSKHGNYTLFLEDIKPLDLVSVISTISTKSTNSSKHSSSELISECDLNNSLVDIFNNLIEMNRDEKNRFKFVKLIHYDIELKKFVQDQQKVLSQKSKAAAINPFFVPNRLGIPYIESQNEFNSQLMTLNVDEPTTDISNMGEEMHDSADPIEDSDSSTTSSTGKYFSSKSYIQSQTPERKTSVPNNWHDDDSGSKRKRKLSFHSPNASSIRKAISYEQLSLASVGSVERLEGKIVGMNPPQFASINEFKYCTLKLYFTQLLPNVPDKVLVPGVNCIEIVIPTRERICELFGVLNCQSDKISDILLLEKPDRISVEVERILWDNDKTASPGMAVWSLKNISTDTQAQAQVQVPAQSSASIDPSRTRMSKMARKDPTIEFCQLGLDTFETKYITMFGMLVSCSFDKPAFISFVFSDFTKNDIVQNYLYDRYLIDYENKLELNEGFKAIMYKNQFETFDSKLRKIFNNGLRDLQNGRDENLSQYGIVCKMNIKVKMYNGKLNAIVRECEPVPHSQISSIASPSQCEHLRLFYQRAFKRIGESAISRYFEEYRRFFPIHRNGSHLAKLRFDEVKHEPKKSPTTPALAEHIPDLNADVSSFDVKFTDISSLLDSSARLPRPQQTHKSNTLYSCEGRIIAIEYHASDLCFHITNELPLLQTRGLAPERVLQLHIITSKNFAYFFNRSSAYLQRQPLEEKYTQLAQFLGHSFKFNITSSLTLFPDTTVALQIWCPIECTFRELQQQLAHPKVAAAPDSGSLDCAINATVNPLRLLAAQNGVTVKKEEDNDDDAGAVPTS
B2: Cell division control protein 13 (Saccharomyces cerevisiae), P32797 (parent)
chain: B1 partner
partner: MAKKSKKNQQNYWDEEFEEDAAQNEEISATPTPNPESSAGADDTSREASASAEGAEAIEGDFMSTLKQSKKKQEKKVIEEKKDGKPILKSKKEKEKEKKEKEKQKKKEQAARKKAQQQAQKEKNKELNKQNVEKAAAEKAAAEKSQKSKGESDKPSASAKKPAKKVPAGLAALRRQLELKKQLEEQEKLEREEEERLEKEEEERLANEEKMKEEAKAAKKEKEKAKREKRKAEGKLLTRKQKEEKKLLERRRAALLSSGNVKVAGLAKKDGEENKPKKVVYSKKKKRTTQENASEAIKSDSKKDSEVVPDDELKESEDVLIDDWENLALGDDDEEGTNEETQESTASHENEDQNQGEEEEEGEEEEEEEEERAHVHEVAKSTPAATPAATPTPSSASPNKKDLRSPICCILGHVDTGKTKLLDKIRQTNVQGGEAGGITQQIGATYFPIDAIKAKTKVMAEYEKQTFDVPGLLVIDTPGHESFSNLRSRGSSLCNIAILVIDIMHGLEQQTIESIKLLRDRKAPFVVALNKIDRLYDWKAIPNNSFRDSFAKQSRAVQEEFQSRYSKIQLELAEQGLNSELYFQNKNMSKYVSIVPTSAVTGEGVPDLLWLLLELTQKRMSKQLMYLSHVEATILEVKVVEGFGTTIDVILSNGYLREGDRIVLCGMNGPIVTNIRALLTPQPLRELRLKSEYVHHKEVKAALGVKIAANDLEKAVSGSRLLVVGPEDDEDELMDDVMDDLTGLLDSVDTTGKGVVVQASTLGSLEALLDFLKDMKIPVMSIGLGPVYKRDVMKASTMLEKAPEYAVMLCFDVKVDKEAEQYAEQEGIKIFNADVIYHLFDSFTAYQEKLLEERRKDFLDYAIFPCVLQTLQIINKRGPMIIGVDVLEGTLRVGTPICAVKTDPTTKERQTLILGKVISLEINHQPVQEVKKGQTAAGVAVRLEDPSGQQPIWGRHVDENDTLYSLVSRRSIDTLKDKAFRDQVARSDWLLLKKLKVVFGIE
B3: Cell division control protein 13 (Saccharomyces cerevisiae), P32797 (parent)
chain: B1 partner
partner: B1 chain

Variants of: B1
Conditions: with cdc13_yeast CDC13, P32797

| Variant | effect of a mutation on the interaction |
| --- | --- |
| E238K | decreasing interaction |
| D236N | decreasing interaction |
| P241T | decreasing interaction |

Variants of: B2
Conditions: with if2p_yeast FUN12, P39730

| Variant | effect of a mutation on the interaction |
| --- | --- |
| K129R | decreasing interaction |
| G243R | decreasing interaction |
| I72T | decreasing interaction |

Variants of: B3
Conditions: with dpola_yeast POL1, P13382

| Variant | effect of a mutation on the interaction |
| --- | --- |
| K129R | decreasing interaction |
| K50Q | decreasing interaction |
| L149S | decreasing interaction |
| L392P | decreasing interaction |
| D97F | decreasing interaction |
| I72T | decreasing interaction |
| G243R | decreasing interaction |
| Y382H | decreasing interaction |
| C124R | decreasing interaction |
| S228P | decreasing interaction |
| I523V | decreasing interaction |
